{
  "source": "patent US20030086932A1",
  "key": {"[1]": {"molecular_target": "murine CTLA-4 on murine T cells (murine) (UniProt P09793)", "sequence (P09793 36-223)": "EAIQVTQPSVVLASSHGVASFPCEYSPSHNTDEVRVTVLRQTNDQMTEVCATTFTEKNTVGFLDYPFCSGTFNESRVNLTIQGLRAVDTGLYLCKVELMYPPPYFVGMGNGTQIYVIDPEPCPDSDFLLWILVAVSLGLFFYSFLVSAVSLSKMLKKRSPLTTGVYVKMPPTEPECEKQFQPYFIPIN", "assay": "cell-based or functional assay"}, "[2]": {"molecular_target": "murine CD28 on murine T cells (murine) (UniProt P31041)", "sequence (P31041 20-218)": "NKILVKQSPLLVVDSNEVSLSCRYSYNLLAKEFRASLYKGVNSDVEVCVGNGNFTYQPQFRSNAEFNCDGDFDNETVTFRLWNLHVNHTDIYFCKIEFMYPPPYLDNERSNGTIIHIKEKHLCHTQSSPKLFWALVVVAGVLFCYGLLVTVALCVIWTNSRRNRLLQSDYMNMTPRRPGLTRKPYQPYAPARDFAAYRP", "assay": "cell-based or functional assay"}},
  "data": [
    {"substance": "mem4F10scFv (surface-linked anti-murine CTLA-4 scFv derived from hamster mAb UC10-4F10, anchored by a murine B7-1 derived motif, expressed on transiently transfected 293 cells) (from UniProt Q00609 247-302)", "values": [
      {"measurement": "reduction in IL-2 production of pre-activated T cells, with combined mem2C11 and memPVIscFvs", "setting": "[1]", "result": 69, "unit": "%"},
      {"measurement": "reduction in IL-2 production of pre-activated T cells, with mem2C11 scFv alone", "setting": "[1]", "result": 67, "unit": "%"},
      {"measurement": "reduction in intensity of the tyrosine-phosphorylated LAT band (photodensitometry, against control scFv)", "setting": "[1]", "result": 35, "unit": "%"},
      {"measurement": "reduction in intensity of the tyrosine-phosphorylated p23 TCR band (photodensitometry, against control scFv)", "setting": "[1]", "result": 85, "unit": "%"},
      {"measurement": "reduction in proliferation of pre-activated T cells, with combined mem2C11 and memPVIscFvs", "setting": "[1]", "result": 66, "unit": "%"},
      {"measurement": "reduction in proliferation of pre-activated T cells, with mem2C11 scFv alone", "setting": "[1]", "result": 80, "unit": "%"}
    ]},
    {"substance": "memPVIscFv (surface-linked anti-murine CD28 scFv derived from hamster mAb PV-1, GPI anchored, expressed on transiently transfected 293 cells)", "values": [
      {"measurement": "proliferation and cytokine production of pre-activated T cells (increase over mem2C11scFv alone)", "setting": "[2]", "result": 10, "unit": "fold"}
    ]}
  ]
}
